In patent US20160362487A1 (Regeneron, published 2016):

T1: human IL-33 (R&D Systems, #3625-IL-010/CF) (human, UniProt O95760 112-270)
T1 construct: Commercial recombinant protein; also called hIL-33; interleukin-33
T1 sequence (looked up): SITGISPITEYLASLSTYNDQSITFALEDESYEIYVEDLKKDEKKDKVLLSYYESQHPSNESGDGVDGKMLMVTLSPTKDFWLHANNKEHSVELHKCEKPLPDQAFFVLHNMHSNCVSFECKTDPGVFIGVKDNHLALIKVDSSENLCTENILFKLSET

T2: cynomolgus monkey IL-33 expressed with a C-terminal hexahistidine tag (cynomolgus monkey)
T2 construct: also called MfIL-33-6His; Mf-IL-33-6His
T2 chain: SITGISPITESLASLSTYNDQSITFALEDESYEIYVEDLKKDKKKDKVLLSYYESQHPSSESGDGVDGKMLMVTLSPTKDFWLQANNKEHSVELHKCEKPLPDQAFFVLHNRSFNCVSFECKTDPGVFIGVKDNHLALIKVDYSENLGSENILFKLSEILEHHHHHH


Tests used:
[1] = biological target: T1, human IL-33 (R&D Systems, …); assay: BLI; hIL-33 pre-mixed with mAb-2 H1M9565N
Protocol: (§1) Binding competition between a panel of different anti-IL-33 monoclonal antibodies was determined using a real time, label-free bio-layer interferometry assay on an Octet® HTX biosensor (ForteBio, A Division of Pall Life Sciences). The experiment was performed at 25° C. using a buffer of 0.01M HEPES pH7.4, 0.15M NaCl, 0.05% v/v Surfactant Tween-20, and 0.1 mg/ml BSA (HBS-ET kinetics buffer) with the plate shaking at a speed of 1000 rpm. To assess whether two antibodies were able to compete with one another for binding to human IL-33, a pre-mix assay format was used where 100 nM of human IL-33 (R&D Systems; #3625-IL-010/CF) was pre-mixed with 500 nM of different anti-IL-33 monoclonal antibodies (subsequently referred to as mAb-2) for at least 2 hours prior to running the binding competition assay. […] Following the capture step, unoccupied anti-mouse Fc polyclonal antibody and anti-human Fc polyclonal antibody on the Octet biosensors were saturated by submerging them for 4 minutes into wells containing 200 μg/mL of a non-specific monoclonal antibody with a mouse Fc or with a human Fc, respectively. Finally, the Octet biosensors were immersed for 4 minutes into wells containing the pre-mixed samples of 100 nM of human IL-33 and 500 nM of mAb-2. At the end of each cycle, the non-covalently captured anti-IL-33 antibodies along with the bound pre-complex of human IL-33 and mAb-2 were removed from the biosensors using three alternate 20 second immersions into 10 mM HCl followed by submerging into HBS-ET kinetics buffer. The biosensors were washed in HBS-ET kinetics buffer in between every step of the experiment. The real-time binding response was monitored during the binding events, and the binding response (in units of nm) at the end of every step was recorded.

[2] = biological target: T2, cynomolgus monkey IL-33 expressed with …; assay: competition ELISA, 150 pM MfIL-33-6His on coated hST2-hFc
Protocol: The ability of anti-IL-33 antibodies to block either human IL-33 (hIL-33) or cynomologus monkey IL-33 binding to the human ST2 receptor was measured using a competition sandwich ELISA. […] The antibody/IL-33 mixtures were incubated for 1 hour at room temperature before they were transferred to the hST2-hFc-coated microtiter plates. After incubating for 1 hour at room temperature, the wells were then washed, and plate-bound biotin-hIL-33 was detected with streptavidin conjugated with horse-radish peroxidase (HRP) (Thermo Scientific, Cat # N200), and plate-bound MfIL-33-6His was detected with a HRP conjugated anti-His monoclonal antibody (Qiagen, #34460). All samples were developed with a TMB solution (BD biosciences, #51-2607KC) to produce a colorimetric reaction and then quenched by acidification with 1M sulfuric acid before measuring absorbance at 450 nm on a Victor X5 plate reader. Data analysis was performed using a sigmoidal dose-response model within Prism™ software. […] Percent blockade was calculated as the ratio of the reduction in signal observed in the presence of antibody relative to the difference between the signal with IL-33 alone and background (signal from HRP-conjugated secondary antibody or streptavidin alone). The absorbance measured for the constant concentration of biotin-hIL-33 or MfIL-33-6His alone is defined as 0% blocking and the absorbance measured for no added IL-33 is defined as 100% blocking.

[3] = biological target: T1, human IL-33 (R&D Systems, …); assay: BLI; hIL-33 pre-mixed with mAb-2 Isotype control 2
Protocol: as §1

[4] = biological target: T2, cynomolgus monkey IL-33 expressed with …; assay: BLI; captured MfIL-33-6His, mAb-1 step with Isotype control
Protocol: Binding competition between a panel of different anti-IL-33 monoclonal antibodies was determined using a real time, label-free bio-layer interferometry assay on an Octet® HTX biosensor (ForteBio, A Division of Pall Life Sciences). The experiment was performed at 25° C. using a buffer of 0.01M HEPES pH7.4, 0.15M NaCl, 3 mM EDTA, 0.05% v/v Surfactant Tween-20, and 0.1 mg/ml BSA (HBS-ET kinetics buffer) with the plate shaking at a speed of 1000 rpm. […] The antigen-captured biosensors were then saturated with a first anti-IL-33 monoclonal antibody (subsequently referred to as mAb-1) by immersion into wells containing 50 μg/mL solution of mAb-1 for 5 minutes. The biosensors were then dipped into wells containing a 50 μg/mL solution of a second anti-IL-33 monoclonal antibody (subsequently referred to as mAb-2) for 4 minutes. The biosensors were washed in HBS-ET kinetics buffer in between every step of the experiment. The real-time binding response was monitored during the experiment, and the maximum binding response for each binding step was recorded. The response of mAb-2 binding to MfIL-33-6His pre-complexed with mAb-1 was measured, and competitive/non-competitive behavior of different anti-IL-33 monoclonal antibodies with respect to each other was determined.

Binder | mAb-1 Binding to the Pre-complex of mAb-2 & hIL-33 [1] | % Maximum blocking [2] | IC50 [2] | mAb-1 Binding to the Pre-complex of mAb-2 & hIL-33 [3] | mAb-2 Binding to the Pre-complex of mAb-1 & MfIL-33-6xHis [4]
H4H9629P (antibody, human IgG4, V domains shown, Human IgG4 Fc (H4H)) VH: EVQLVESGGGLVQPGGSLRLSCAASGFTFRSFAMSWVRQAPGKGLELVSDLRTSGGSTYYADSVKGRLTISRDNSKNTLYLQMNSLRAEDTAVYYCAKSHYSTSWFGGFDYWGQGTLVTVSS VL: DIQMTQSPSSVSASVGDRVTITCRASQGFSSWLAWYQQKPGKAPKLLIYAASSLQSGVPSRFSGSGSGTDFTLTITNLQPEDFATYYCQQANSFPLTFGGGTKVEIK | 0.74 nm | – | – | 0.14 nm | 0.26 nm
H4H9633P (antibody, human IgG4, V domains shown, Human IgG4 Fc (H4H)) VH: EVQLVESGGGLVQPGGSLRLSCAASGFTFSSYVMSWVRQAPGKGLEWVSSISGNGGSTNYADSVKGRFTISRDNSKNTLFLEMNSLRAEDTAVYYCAKSLGTTTTFLGFDYWGQGTLVTVSS VL: DIQMTQSPSSVSASVGDRVTITCRASQGISSWLAWYQQKPGKAPKLLIYAASSLQSGVPSRFSGSGSGTYFTLTISSLQPEDFATYYCQQANSFPLTFGGGTKVEIK | 0.66 nm | – | – | 0.15 nm | 0.28 nm
H4H9640P (antibody, human IgG4, V domains shown, Human IgG4 Fc (H4H)) VH: QVQLQESGPGLVKPSETLSLTCTVSGGSISSYYWSWIRQPPGKGLELIGYIYYSGSTNYNPSLKSRVTISVDTSKNHFSLKLSSVTAADTAVYYCARSQYTSSWYGSFDIWGQGTMVTVSS VL: DIQMTQSPSSVSASVGDRVTITCRASQGISTWLAWFQQKPGKAPKLLIYAASTLQGGVPSRFSGSGSGPEFTLTISSLQPEDFATYYCQQANSFPWTFGQGTKVEIK | 0.57 nm | 73% | 3.5 nM | 0.1 nm | 0.28 nm
H1M9565N (antibody, mouse IgG1, V domains shown, Human variable domains, mouse IgG1 Fc (H1M)) VH: QVTLKESGPVLVKPTESLTLTCSVSGFSLSNVRMGVSWIRQSPGKALEWLAHIFSNDEKSYTTSLKTRLTISKDTSRSQVVLTMTDMDPGDTATYYCARIRNLAFNYWGQGTLVTVSS VL: not shown | – | 86% | 12 nM | 0.03 nm | 0.34 nm

Continued, values first:

mAb-1 Binding to the Pre-complex of mAb-2 & hIL-33 [1] | % Maximum blocking [2] | IC50 [2] | mAb-1 Binding to the Pre-complex of mAb-2 & hIL-33 [3] | mAb-2 Binding to the Pre-complex of mAb-1 & MfIL-33-6xHis [4] | Binder
0.08 nm | 38% | 0.84 nM | 0.1 nm | 0.34 nm | H1M9568N (antibody, mouse IgG1, V domains shown, Human variable domains, mouse IgG1 Fc (H1M)) VH: QVLLVQSGAEVKKPGATVKVSCKASGSTFTGYYMHWVRQAPGQGLEWMGWINPNNGGTNYAQKFQGRVTMTRDTSISTAYMELSRLRSDDTAVYYCARELRYNWKSWGQGTLVTVSS VL: EIVLTQSPGTLSLSPGERVTLSCRASQSVGRPYLAWYQQIPGQAPRLLIYGASSRATDIPDRFSGNGSGTDFTLTISRLEPEDFAVYYCQQYDNSPYTFGQGTRLEIK
0.52 nm | 92% | 0.6 nM | 0.09 nm | 0.25 nm | H4H9659P (antibody, human IgG4, V domains shown, Human IgG4 Fc (H4H)) VH: QVQLVQSGAEVKKPGASVKVSCKASGYTFNSYGISWVRQAPGQGLEWMGWISSHNGNSHYVQKFQGRVSMTTDTSTSTAYMELRSLRSDDTAVYYCARHSYTTSWYGGFDYWGQGTLVTVSS VL: DIQMTQSPSSVSASVGDRVTITCRASQGFSSWLAWYQQKPGKAPQLLIYAASSLQSGVPSRFSGSGSGSDFTLTISSLQPEDFATYYCQQANSFPLTFGGGTKVEIK
0.17 nm | 41% | 0.22 nM | 0.1 nm | 0.38 nm | H1M9566N (antibody, mouse IgG1, V domains shown, Human variable domains, mouse IgG1 Fc (H1M)) VH: EVQLLESGGDLVQPGGSLRLSCAASGFTFSSYAMSWVRQAPGKGLEWVSVISGSGSSTDYADSVKGRFTISRDNSRDTLHLQMNSLRAEDTAVYYCAKTFYYFYGLDVWGQGTTVTVSS VL: DIQMTQSPSSLSASLRDRVTITCRASQGISNYLAWYQQKPGKVPKVLIYAASTLQSGVPSRFSGSGSGTVFTLTISSLQTEDVATYYCQKYSSAPFTFGPGTKVDIK
